# Reference: article PMC10901774, “Mirror-image ligand discovery enabled by single-shot fast-flow synthesis of D-proteins” (Nature Communications, 2024)
# Settings: pH 7.4
# Protocol: For protein targets with no known binding partners and no available activity assays (ERG and IRAK2), we recorded circular dichroism (CD) spectra and compared them to recombinantly derived material.
# ERG and IRAK2 Circular Dichroism
# Before analysis, all proteins were exchanged into CD buffer (10 mM KP i, 5% glycerol v/v, pH 7.4).
# Fast protein liquid chromatography (FPLC) purification was performed using GE Life Sciences
# columns on an ÄKTA Pure FPLC system. The ÄKTA Pure, FPLC columns, and all buffers were
# stored and subsequently used in a cold room maintained at 4 °C. HiTrap™ Desalting 5 mL: Before
# desalting, the column was equilibrated with 20 mL of the CD buffer at 2 mL/min or until the
# conductance reading from the ÄKTA Pure stabilizes, whichever is the greater volume. Up to 1.5
# mL of sample was loaded into the column using a syringe fitted with a compatible male-end screw
# tip, and then the loaded column was attached to the ÄKTA Pure. An isocratic flow of buffer (2 CV) […]
# protein solution was determined with Method 1.6.1. […]
# mg/mL with additions of CD buffer. All CD spectra were recorded on an AVIV Model 420 Circular […]
# Before all readings, cuvettes were cleaned with Hellmanex™ 3 concentrate according to
# manufacturer directions. Far circular dichroism spectra were recorded as the average of three […]
# with 2 nm bandwidth and 8 second averaging time. Spectra were recorded between 0 and 110 […]
molecule,measurement,value
"Recombinant ERG: ERG (115-208) recombinantly expressed in E. coli (protein, UniProt P11308 115-208, looked up, fragment) PPNMTTNERRVIVPADPTLWSTDHVRQWLEWAVKEYGLPDVNILLFQNIDGKELCKMTKDDFQRLTPSYNADILLSHLHYLRETPLPHLTSDDV","TM (melting temperature), ERG",71.7±0.8 ºC
